The sequences below were run on Escherichia coli TOP10 (assay: shrunken log2 fold change of peptide-encoding DNA abundance (4.5 h post-induction vs induction); higher = less antimicrobial activity (less host growth inhibition)). Conditions: time post-induction: 4.5 h; library: site-saturation at positions 5, 18, 19, 20.
RRIRQRPPRLPRPRPRPELLPRP was tested, and the “shrunken log2 fold change” value was 0.534.
With RRIRARPPRLPRPRPRPDVVPRP the “shrunken log2 fold change” value was -0.101.
In the case of RRIRERPPRLPRPRPRPNCGPRP, the “shrunken log2 fold change” value is reported as -0.26.
In the case of RRIRRRPPRLPRPRPRPGAYPRP, the “shrunken log2 fold change” value is reported as 0.00783.
In the case of RRIRNRPPRLPRPRPRPICFPRP, the “shrunken log2 fold change” value is reported as -0.217.
With RRIRQRPPRLPRPRPRPSCQPRP the “shrunken log2 fold change” value was -0.834.
In the case of RRIRSRPPRLPRPRPRPEVLPRP, the “shrunken log2 fold change” value is reported as -0.0111.
With RRIRTRPPRLPRPRPRPRVMPRP the “shrunken log2 fold change” value was 0.0867.
For RRIRPRPPRLPRPRPRPFVAPRP, the “shrunken log2 fold change” value was -0.186.
RRIRPRPPRLPRPRPRPFQDPRP was tested, and the “shrunken log2 fold change” value was -0.0806.
With RRIRYRPPRLPRPRPRPELLPRP the “shrunken log2 fold change” value was -0.157.
In the case of RRIRQRPPRLPRPRPRPGVKPRP, the “shrunken log2 fold change” value is reported as 0.0204.
RRIRSRPPRLPRPRPRPTKQPRP was tested, and the “shrunken log2 fold change” value was 0.129.
RRIRSRPPRLPRPRPRPCNHPRP was tested, and the “shrunken log2 fold change” value was -0.361.
In the case of RRIRERPPRLPRPRPRPGATPRP, the “shrunken log2 fold change” value is reported as 0.148.
With RRIRARPPRLPRPRPRPNAAPRP the “shrunken log2 fold change” value was 1.13.
With RRIRLRPPRLPRPRPRPFAKPRP the “shrunken log2 fold change” value was -0.118.
With RRIRCRPPRLPRPRPRPIQFPRP the “shrunken log2 fold change” value was -0.131.
RRIRARPPRLPRPRPRPQGWPRP was tested, and the “shrunken log2 fold change” value was 0.472.
In the case of RRIRGRPPRLPRPRPRPAEDPRP, the “shrunken log2 fold change” value is reported as 0.0402.
In the case of RRIRIRPPRLPRPRPRPCLEPRP, the “shrunken log2 fold change” value is reported as -0.808.
In the case of RRIRRRPPRLPRPRPRPGNSPRP, the “shrunken log2 fold change” value is reported as 0.119.
For RRIRDRPPRLPRPRPRPEQRPRP, the “shrunken log2 fold change” value was 0.0765.
For RRIRLRPPRLPRPRPRPTPTPRP, the “shrunken log2 fold change” value was 0.786.
RRIRARPPRLPRPRPRPMASPRP was tested, and the “shrunken log2 fold change” value was 0.543.
For RRIRRRPPRLPRPRPRPASVPRP, the “shrunken log2 fold change” value was 0.267.
RRIRRRPPRLPRPRPRPVREPRP was tested, and the “shrunken log2 fold change” value was 0.0195.
RRIRLRPPRLPRPRPRPIYQPRP was tested, and the “shrunken log2 fold change” value was -0.385.
With RRIRIRPPRLPRPRPRPHSTPRP the “shrunken log2 fold change” value was -0.428.
For RRIRHRPPRLPRPRPRPTGHPRP, the “shrunken log2 fold change” value was 0.173.
For RRIRLRPPRLPRPRPRPRNFPRP, the “shrunken log2 fold change” value was -0.112.
With RRIRRRPPRLPRPRPRPCCSPRP the “shrunken log2 fold change” value was 0.107.
For RRIRPRPPRLPRPRPRPAVRPRP, the “shrunken log2 fold change” value was -0.246.
For RRIRFRPPRLPRPRPRPQMSPRP, the “shrunken log2 fold change” value was -0.204.
In the case of RRIRRRPPRLPRPRPRPHKVPRP, the “shrunken log2 fold change” value is reported as 0.0772.
For RRIRKRPPRLPRPRPRPAPDPRP, the “shrunken log2 fold change” value was 0.598.
RRIRIRPPRLPRPRPRPSRYPRP was tested, and the “shrunken log2 fold change” value was -0.759.
With RRIRRRPPRLPRPRPRPPKWPRP the “shrunken log2 fold change” value was 0.628.
RRIRNRPPRLPRPRPRPHQKPRP was tested, and the “shrunken log2 fold change” value was 0.0226.
In the case of RRIRLRPPRLPRPRPRPIEYPRP, the “shrunken log2 fold change” value is reported as -0.426.
RRIRDRPPRLPRPRPRPEHMPRP was tested, and the “shrunken log2 fold change” value was 0.05.
RRIRSRPPRLPRPRPRPQIMPRP was tested, and the “shrunken log2 fold change” value was 1.11.
In the case of RRIRERPPRLPRPRPRPKRYPRP, the “shrunken log2 fold change” value is reported as -0.051.
In the case of RRIRVRPPRLPRPRPRPGSVPRP, the “shrunken log2 fold change” value is reported as -0.269.
With RRIRWRPPRLPRPRPRPYLAPRP the “shrunken log2 fold change” value was -0.211.
RRIRLRPPRLPRPRPRPANGPRP was tested, and the “shrunken log2 fold change” value was 0.115.
For RRIRLRPPRLPRPRPRPPKKPRP, the “shrunken log2 fold change” value was 0.265.
For RRIRVRPPRLPRPRPRPHCDPRP, the “shrunken log2 fold change” value was -0.401.
With RRIRVRPPRLPRPRPRPQLIPRP the “shrunken log2 fold change” value was -0.334.
RRIRWRPPRLPRPRPRPFFSPRP was tested, and the “shrunken log2 fold change” value was -0.101.
With RRIRQRPPRLPRPRPRPEQLPRP the “shrunken log2 fold change” value was -0.0643.
With RRIRARPPRLPRPRPRPEMNPRP the “shrunken log2 fold change” value was 0.655.
RRIRYRPPRLPRPRPRPINKPRP was tested, and the “shrunken log2 fold change” value was -1.43.
RRIRDRPPRLPRPRPRPCYNPRP was tested, and the “shrunken log2 fold change” value was -0.271.
In the case of RRIRYRPPRLPRPRPRPAWSPRP, the “shrunken log2 fold change” value is reported as -0.292.
For RRIRYRPPRLPRPRPRPCENPRP, the “shrunken log2 fold change” value was -0.215.
RRIRARPPRLPRPRPRPQWDPRP was tested, and the “shrunken log2 fold change” value was 0.00442.
In the case of RRIRLRPPRLPRPRPRPWFQPRP, the “shrunken log2 fold change” value is reported as -0.0555.
In the case of RRIRMRPPRLPRPRPRPVMAPRP, the “shrunken log2 fold change” value is reported as 0.266.
With RRIRNRPPRLPRPRPRPKNFPRP the “shrunken log2 fold change” value was 0.0662.

— the supplement of paper PMC9112550, “Optimization of the antimicrobial peptide Bac7 by deep mutational scanning” (BMC Biology, 2022)
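Note: peptides expressed intracellularly from a pBAD plasmid library in pooled LB shake-flask culture, induced with 0.3% L-arabinose, DNA abundance read by NGS, three biological replicates, DESeq2 with apeglm shrinkage.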
